Target: neutral avidin (UniProt P02701)
Experiment: dynamic light scattering; each protein alone peaks near 10 nm

neutral avidin, sequence (P02701 25-152): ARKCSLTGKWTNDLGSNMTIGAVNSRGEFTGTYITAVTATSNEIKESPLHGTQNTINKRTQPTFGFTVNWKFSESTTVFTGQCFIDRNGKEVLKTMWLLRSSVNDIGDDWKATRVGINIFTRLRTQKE

Nhead recombinant protein (AtaA59-325-GCN4pII-His)
particle size at the peak of the mixture (DLS): > 1000 nm

— US20220259268A1
